Data: a protein production outcome set (Wang et al. 2014)

Experiment: label from the status in PepcDB records

| Sequence | protein production |
| --- | --- |
| MASLLQGFEEVQLVKPVGKTVLTVTDSAIRFNKATAEALGFPAYVKVLINDKTRQIAVTPTTAKAGNAIKFSKPEGKQAASVSVKEATFIEAVKAYLTLPEAPEGEIAYQSVNGTAYPESKTVIFDVANATAGTMKLEHHHHHH | not failed |
| MGLWAAVHAERRGIATIIADAGRLGGGASGGLLGALMPHMPDRWSEKKQFQFDALVSLEAEIAALEAATGLSAGYNRSGRLIPLPKPHLNRIARGHSEDAERHWQAGERRFHWHVVDRPDADGWVDASAGASGFVHDTLAARVAPRSLMSALIASLRQAKFVRILEYAAVAGLDPDRGTADIGGETIAFSRCILAAGHQSFPLLQELTLGPKKPLGQPVKGQATLLKAAIDPALPTIFLDGLYIVAHEGGHVAIGSTSENRFNDPFSTDAQLDALIETARAIVPILRDAPVVERWAGLRPKAIDRDPMIGCHPDHPRLIALTGGFKVSFGLAHRLAEAAVCIADDIDCEYLLPESFAISSHIAAASR | failed |
| MPHLNILIVRIEEFLRSIVKITSAPTYKTRVKSFNSYYLKLLKFPPKKDTSDLPVLTDILGVRIICPFLQDINEVERILLKNFKIIEVERKGSERTFREFGYESVHFLLDIPEEFKVGLVLPKNLIFEIQLRTILQDAWAEVEHELVYKSEFSPFDQPLKRKLASINASLSLADIIFQEIRDYQNKLNAELEKRRFEFYSMADEYTAQVLPETNIVQHDNVEHGEELKLAETIDDLILSAIEAHNQNLFDKAEKIYTKIIEQNPNDIVLSVVYKHRGMAYFAQANYEGAYADFLQSCKYNSANFRSFYYVGIALTLLNRDDEAIEYFTKSLEINKFQAHVYFRRALSYFKLALYPEAARDLDSASDLGLAEEDAKKLRIAIAKKIDMV | failed |
| MNLAVTVLEIVAPVFLLAAVGFGWVRMGFEYRLQFVTRLGTMLAVPCLIFVALMKTEIPGGDLSRFTLASALAILALTVVFGLIVRFSGLDRRTYLPPLLFGNTGNLGLPLCMFAFGIEGLSYAVVFFSLSALWSFSYGIHVVAGQGSLSKVVREPMVWATLLGALFLSQDWQTPRFLTNALELIGQMAVPLMLITLGVAMARLSIRRIGQALGLSLLKLAICFPVGWLVAQGFGLSGPALGVLVVQMSVPAAVSAYLLAERFGADADAVAGMVMVSTLLAVGALPLVLAAVL | failed |
| MDSGFTLRAPRNDKRRNPMPAILGTGEHRYRVVENFAKLPDGWQLTDVAAVAVDSLDRVYVFNRGAHPMVVLDREGNFLRSWGEGLFSRAHGLHIDADDNLYCTDDGDHTVRKCTSDGKVLLTIGIPAKPAPFMSGEPFHRCTHTALSPKGEIYVSDGYGNARVHKFTPDGKLIKSWGEPGTDPGQFNIVHNIATDSDGWVYVADRENHRVQVFNGEGKYETQWNNLHRPCALCCCGGRSPTFVIGELGPGLDINRNVPNLGPRLSIVDAKGNRIARLGGEEGPGVASGKFLAPHGIALDSKGDIYVGEVGVTNWATSFPDQEMPAVVRATRCLQKLERVRELEHHHHHH | failed |
| MLISALIVMVITYCLIISRSITKIPPWASMFFGGILMVILGIISPEEALQSINLDVILFLITLFTFASALEVSGFLKFLAYKIIEKFKEPRKVLFYILLYSGLLSNLVTNDGVSASWTPVILELSRMIGVSEVPFLYALAVGVTIGSVIMPTGNPQNLLIALESGIKNPFITFTIYLTLPSIISLIIAYFILFRLFRKSLSLPSGINIKKEEEEKVDFDRRLGYLTLTLLVVTIILFFSLSFFKIDILLGSLVTSSILLLLTEKRRDIVRRMDWPTILFFIGLFIFTDGVLKSGIIQYLSNFLPPPDSVASIMIVSILLSQVLSNVPLVAIYIPIMISHSGITVVDWLALAAGSTIAGNFTILGAASNVIISEASESRGGKGFNFVEFMKYTIPILIPNAIIIYLFLVLFR | failed |
| MFVGHLPGAYLIFRVVTPRIERMAFTAAMLGAIAPDLDMLRFYFVDGRAFHHHEYLTHRPILWTGLLLCGVLIGMRSRRIGVPLAFFGAGGLVHMLLDSIAGKIAWAWPVSDFAAPLVVVPATQSHWILSFLSHWTFAVELGITVLALVLWRWLPRRATARR | failed |
| MTHSQQSMVDTFRASLFDNQDITVADQQIQALPYSTMYLRLNEGQRIFVVLGYIEQEQSKWLSQDNAMLVTHNGRLLKTVKLNNNLLEVTNSGQDPLRNALAIKDGSRWTRDILWSEDNHFRSATLSSTFSFAGLETLNIAGRNVLCNVWQEEVTSTRPEKQWQNTFWVDSATGQVRQSRQMLGAGVIPVEMTFLKPAPLEHHHHHH | not failed |
| MLSLLLILPVIGALIIGFFPGNIPAKQLRQITEVFAVLTLVWSLLVLFKFDVTDPQFQFQEYLPWIPQLGLNYSLAIDGLSLPLVILNNLLTGVAIYSIGPNVNRSRLYYGLILLINAGISGALLAQNLLLFIVFYELELIPFYLMIAIWGGEKRGYASMKFLLYTAFSGLLVLAAFLGMSLLSGSHSFDYNPEITQTFTESAQTILLILILLGFGIKIPLVPLHTWLPDAYTEASPATAILLGGILAKLGTYGIIRFGLQLFPQTWAQFAPVLAIIGTVTVLYGALSAIAQKDIKRMVAYSSIGHMGYILVAAAAGTELSVLGAVAQMVSHGLILALLFHLVGIVERKAGTRDLDVLNGLMNPIRGLPLTSALLITGGMASAGIPGLVGFAAEFIVFQGSFPTFPIPTLLCILASGLTAVYFVILLNRTCFGKLDNQRAYYPKVLASEMIPALVLTAIIFFLGVQPNYLVHWTQTTTNEMIAQLPHETSAIEQLAQGVTLP | failed |
| MGDREKNVGFAASLNILFTIIELIGGILTNSLALLADAMHDFADSLALIVAWFAEKKAKKPATSKMTFGYRRLSLLSAAFATIVLIAGSLFILSQAIPRLLNPEPVNAEGMFLIAIIGVTINGLGYFRLKKGISQNEKILSWHLLEDILGWVVLLIGSVIIGFWNQPIIDPIMTIGFTIFVLWGVFKNAKETFNLLLEGVPEYIDIDEVKESILSVEGTKAVHDLHIWSLEGETDILTAHVVVEDEYLARPDKMRQSIKSRLEKHQIEHSTLELESEGFCSGTECIFELKG | failed |
| AVDLNKENRDPKYVESIVNRSQKIVDKLGLTDAKVAEDVCNVIANRYFELNDIYEIRDAKVKAVKESGLTGDAKNEALKAAENEKDAALYRSHFAFPASLSLFLNEEQIEAVKDGMTYGVVKVTYEATLDMIPSLKEEEKVQIYAWLVEAREFAMDAENSNKKHAAFGKYKGRINNYLAKRGYNLTKEREEWAKRVKARGGTL | not failed |
| MRTMPDKPDTWARIVAAISNPLWQGMIMAIVVSLLRILYDAKETSKRRILFEALICGSLSLVASSLIEWMTWPPSLSVAAGGTIGFLGVTAIRELVARFIGRKVDSL | failed |
| MDIRTITSSDYEMVTSVLNEWWGGRQLKEKLPRLFFEHFQDTSFITSEHNSMTGFLIGFQSQSDPETAYIHFSGVHPDFRKMQIGKQLYDVFIETVKQRGCTRVKCVTSPVNKVSIAYHTKLGFDIEKGTKTVNGISVFANYDGPGQDRVLFVKNI | not failed |
| MQMNSEKFFKLFRVGETVLVEYSGTSRAELLLYYIVNNSKLPIVVDDILDTYYEFYTRLKVAGFDVAPLENVQVIKMGGTKDIGRVIGRLNISKYVISEQEYMEIVSQLKDYPVINPVLGLHKLILLGNTFENINVVKMVSNYVGREERIAFYFVNRNVIEKHSSPILDLLEEVVTSILEITDSGIIIKKSIKDEIAGKIVSPLLNF | not failed |
| TLPPRGRLRIDVPLALAHAILIPNLKHFQSLYPDIDVILVSSDKKTDLISEGVDCLVRLGELQDSSFISRRLGDIRMVTCAAPSYLQQYGRPETLADLDQHRAINFFSDHSRDVMEWKFTKDGKIVSLRPVGSMLVDNSDILL | failed |
| VDIVVIGAGFTGLSTAYHIRKTDSSASVVVLEGECVAFGASGRTSGWVVPIPVLDPATARTLYGKERLTELQNFAWDGLDYVRDLISRENMDSDFEVPGVTFTTLKGHEKRLETFIKYWKDQPRSSDSIIMDKATVSNALNSDAFSGGCRMLHSGQVNPVKHSRELKRIAQEAGAQIFEQTPVLDIEDHGTYFILKTPEGQVRTKHIVLGTNGFTHLLPATLGLRRAQLPMFVYQLMTEPLSEADWKALGWKHRAQFYDKTTYCPPTCRTTVDGRLQFNLCDVYLGTGRSMDEAQRMQFYDAAERMYKKMFPAFKNLRVAQRWSGACSISFDVRPQVGTLHDGRISYGYGYSGAGVMMSQNFGRILADLALQRKTELTE | failed |
| MASRGRRPEHGGPPELFYDETEARKYVRNSRMIDIQTRMAGRALELLYLPENKPCYLLDIGCGTGLSGSYLSDEGHYWVGLDISPAMLDEAVDREIEGDLLLGDMGQGIPFKPGTFDGCISISAVQWLCNANKKSENPAKRLYCFFASLFSVLVRGSRAVLQLYPENSEQLELITTQATKAGFSGGMVVDYPNSAKAKKFYLCLFSGPSTFIPEGLSENQDEVEPRESVFTNERFPLRMSRRGMVRKSRAWVLEKKERHRRQGREVRPDTQYTGRKRKPRF | failed |
| MPVDLQALYPRLIHLMLDTVFVVDRDNQIVFVSDACKTLLGYEACELIGTPITRYMHPDDLAATRASIMRVMNGQPHYDFCNRYLRKDGSVVHILWAACWSEEAQARIGVARDVTAQRKAEDELRFLAHHDPLTRLANRAMFNERLDTALAAARRHNRRLALLFLDINDFKQINDNHGHSVGDRVLCTLARRLERCVGAAGTVARMGGDEFTVLLPDCPSPEAIATHVQHILAVMAEPLDAEFAGIDAPSCSIGVARFPEDGNDADMLLRHADGHMYRIKRQRAATG | failed |
| MSNIFLSLEPKILWSHFYRLTQIPRPSGHEEAVRTYVADVAKRCGLEWLVDEAGNIIVRKPASAGMERRRGVILQAHLDMVPQKNAGTAHDFTKDPIDAVIDGEWVHARGTTLGADNGIGVAAALAVLESDDLRHGPLEALFTVNEEAGMTGALGLKPGVLRGDILLNLDSEDEGELFIGCAGGLDGTMRFDYSCEPLPPGYSGIEIRVSGLRGGHSGMDIDLGRGNANKIMNRLLQMGREHHGLLLASIDGGSLRNAIPRESVALVAVPSAQKVAFLDELHSLASAIGLELNGVDPELRVEAADAALPVGMIDDTVAQRLFDAVAACPNGVHRMSEAMAGLVETSNNLARVHSDGRAVSVECLLRSASVEGMRELADAVAGIAERAGTVAAFENGYPGWKPNPASPILKCMVKVYRDRFGKTPEIRAVHAGLECGIIGANNPQLDMISFGPTIRHPHSPDEKVECSSVLKFWELLVATLEEVPEPLEHHHHHH | failed |
| MNPENWLLLRRVVRFGDTDAAGVMHFHQLFRWCHESWEESLESYGLNPADIFPGSRKSEVTPEVALPIIHCQADFRRPIHTGDALAMELRPERLNPNSFQVHFEFRCEEQIAAHALIRHLAINAQTRHRCALPEGIDRWLEASGVGKIGSI | not failed |
| MTMTRTPLTQAAATLKARFREIGYTTSGINNVLGPDFVAAMHAGQPAAVRFHLDSLPESDLNLALRAFVLRDQVRVEKLAALLGEALKTLVDASLVEISGEYAQFLIDIRPHLIAGRQQWVFSDADASMTQHVPGPDHVLGVGAASLSLLQATPTSPTGSVLDLGTGSGIQVLGQAGAAQEIIATDVHPRALDFAEATLVDSGIPTQLVEGSWFEPVRGRTFDRIIANPPFVVGPPEIGHVYRDSGMDLDGATALVVKEACAHLNPGGTAHLLGAWVHSADQSWQQRVAEWLPDNGYVAWVIERDAVSPAQYVGTWLSDESLDLRSPEAAARTTAWLNHFEKAKVQGVGFGFIAIQRLEEDEADEKSDILAESMTQYFEDPLGPEIEEYFTRTAWLREQTRDSILSSRFKVRPGVAREQISLADAEEGMGFSPVTLRLTRTDGPRWSHDVDEHVASIVAGLNPHGLPFEEILEMYAMAQGIEGESLHNGAIAALVDLIRHGLVLPADLLDS | failed |
| EEPTIGDIYNGKVTSIMQFGCFVQLEGLRKRWEGLVHISELRREGRVANVADVVSKGQRVKVKVLSFTGTKTSLSMKDVDQETGEDLNPNRRRNLV | not failed |
| MSDRLGIFFSGLCFVHCLATPILLIFLGTNSLASVLETPLFHRLLLLPVLTMAIFQGYYAWKNPQAKLSRVLLPLGCLAVVIAQFFHGPIEILLTIIGSLTLISGHFFHLKHEHCADQN | failed |
